Measurements taken from the supplement of paper PMC7125110.
± gives the standard error. Fewer inactive variants are shown than the library holds.

B1: glmS ribozyme (parent)
chain: AUAAAAGCGCCAGAACUACAGAAAUGUAGUUGACGAGGAGGAGGUUUAUCGAAUUUUCGGCGGAUGCCUCCAAA

Variants of: B1
Assay: self-cleavage kobs at 2500 uM GlcN6P; higher = faster cleavage; RNA array
Settings: with glucosamine-6-phosphate
Procedure, shortened: (§1)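 Barcoded glmS ribozyme variants on sequenced MiSeq chips were transcribed in situ by E. coli RNA polymerase and tracked through a hybridised Cy3 probe at 37 °C. Glucosamine-6-phosphate (40 μM to 10 mM) in HEPES/KCl/Mg(OAc)2 buffer was flowed in, and tiles were imaged over ~14 h. Signals were normalised to baseline and to non-cleaving reference variants; per-tile medians were fit to one- or two-exponential decays to give kobs. kcat and KM came from weighted Michaelis–Menten fits across concentrations.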

Variant	self-cleavage kobs at 2500 uM GlcN6P [s⁻¹]
AUAAAUGCGCCAGAAGUACAGAAAUGUAGUUGACGAGGACAAGGUUUAUCGAAUUUUCGGCGGAUGCCUACAAA	< 1e-05
AUAAAUGCGGCAGAACUACAGAAAUGUAGUUGACGAGGAGGAGGUUUAUGGGAUAUUCGGCGGAUGCAUCCAAA	0.000313 ± 7.4e-05
AUAAAGGCGCCAGAACUACAGAAAUGUAGUUGACGAGGAGGAGGUUUAUCGACUUUUCGGCGGAUGCAUCCAAA	< 1e-05
AUAAAUGCGCCAGAACUACAGAAAUGUAGUUGACGAGGAGGAGGUUUAUCGAAGUUUCGGCGGAUCUCUCCAAA	< 1e-05
AUAAAGACGCCAGAAGUACAGAAAUGUAGUUGACGAGGAGGAGGUUUACCGAUUUUUCGGCGGAUGUCUCCAAA	< 1e-05
AUAAAGGCGCCGGAACUACAGAAAUGUAGUUGACGAGGAGGAGGUUUAUCUAAUUUUCGGCGGAUGCCUCCAAA	< 1e-05
AUAAAGGCGCCAGAAUUACAGAAAUGUAGUUGACGAGGAGGAGGUUUAUCGAAUUUUUGGCGGAGGCCUCCAAA	< 1e-05
AUAAAUGCGCAAGAACUACAGAAAUGUAAUUGACGAGGAGGAGGUUUAUUGAAUUUUCGGCGGAUGCCUCCAAA	< 1e-05
AUAAAUGUGCCAGAACUACAGAAAUGUAGUUAGCGAGGAGGAGAGUUAUCGAAUUUUCGGCGGAUGCCUCCAAA	< 1e-05
AUAAAUGCGCAAGAACUACAGAAAUGUAGUUGACGAGGAGGAGGUUUAUCGAAUUUUCGGCAGAUGCCUCCAAA	< 1e-05
AUAAAGGCCCCAGAACUACAGAAAUGUAGUUGACGAGGAGGAGGUUUAUCGAAUUUUCGGCGCUUGCCUCCAAA	< 1e-05
AUAAAUGCGACAGAACUACAGAAAUGUAGUUGACGAGGAGGAGGUUUACCGAAUUUUCGGCGGAUGCCUGGAAA	0.00019 ± 8.2e-05
AUAAAAACGCCGGAACUACAGAAAUGUAGUUGACGAGGAUGAGGUUUGUCGCAUUUUCGGCGGAUGUCUCCAAA	< 1e-05
AUAAAGGCGCCAGAACUACAGAAAUGUAGUUGGCGAGGAGGAGGUUUAUCGAAAUCUCGGCGGAUGCCUCCAAA	< 1e-05
AUAAAUGCGCCAGAACUACAGAAAUGUAGUUGACGACGAGGAGGUUUAUCGAAUUUUCGGCGGGUGCCUCCAAA	< 1e-05
AUAAAAACGCCAGAACUACAGAAAUGUAGUUGACGAGGCGGAGGUUUAUCGAAUUUUCGGCGAAUGCCUCCAAA	< 1e-05
AUAAAGGCGCCAGAACUACAGAAAUGUAGUUGUCGAGGAGGAGGUUUAUCGAAUUUUAGGCGGAUGCCUCCAAA	< 1e-05

Variant	self-cleavage kobs at 2500 uM GlcN6P [s⁻¹]
AUAAACGCGCCAUAACUACAGAAAUGUAGUUGACGAGGAGGAGGUUUAUCGAAUUUUCGUCGGACGCCUCCAAA	< 1e-05
AUAAAUGCGCCAGGACUACAGAAAUGUAGUUGACGAGGAGGAGGUUUAUCGAAUUAUCGGCGGAUGCCUCCAAA	0.000586 ± 0.00023
AUAAAGGCGCCAGAACUACAGAAAUGUAGUUGACGAGGGGGAGGUUUAUCGAAGUUUCGGCGGAUGCCUCCAAA	0.000164 ± 4.9e-05
AUAAAGGCGCCAGAACUACAGAAAUGUAGUUGACGAGGAGGAGGUUUAUCGAAUUUUCGUCGGAUUCCUCCAAA	< 1e-05
AUAAAGGCGCCAGACCUACAGAAAUGUAGUUGACGAGGAGGAGGUUUAUCGAAUUUUCGGCGAAUGCCUCCAAA	< 1e-05
AUAAAGGCGCCCGAAUUACAGAAAUGUAGUUGACGAGGAGGAGGUUUAUCGAAUUUUCGGCGGAUGCCUCCAAA	0.000167 ± 3.6e-05
AUAAAAAUGUCCGAACUACAGAAAUGUAGUUGACGCGGAGGAGGUUUAGCGAAUUUUCGCCGGUUGCCUCCAAA	< 1e-05
AUAAAGGCGCCAGAACUACAGAAAUGUAGUUGACGAGGAGGCGGUUUAUCGAAUUUUCGGCGGAUGCCGCCAAA	0.000462 ± 0.00019
AUAAAUGCGCCAGAACUACAGAAAUGUAGUUGACGAGGAGCAGGUUUAUCGAAUUUUCGGCGGAACCCUCCAAA	< 1e-05
AUAAAGGCGCCAGAACUACAGAAAUGUACUUGCCGAGGAGGAGGUUGAUCGAAUUUUCGGCGGAUGCCUCCAAA	< 1e-05
AUAAAUGCGCCAGAACUACAGAAAUGUAGUUGACGAGAAGGAGGUUUAUGGAAUUUUCGGCGGAUGUCUCCAAA	6.17e-05 ± 1.7e-05
AUAAAUCCGCCAGAUCUACAGAAAUGUACUUGACGAGAAGGAGAUUUAUCGAAUUUUCGGAGGAUGCCUCCAAA	< 1e-05
AUAAACGCGCCAGAACUACAGAAAUGUAGCUGACGAGGUGGAGGUUAAUUGACUUUUCGGCGGAUGCCUCCAAA	< 1e-05
AUAAACGCGCCAGAACUACAGAAAUGUAGUUGACGAGGAGGAGGUCUACCGAAUUUUCGGCGAAUGCCUCCAAA	< 1e-05
AUAAAUGUGCCAGAACUACAGAAAUGUAGUUGACGAGGAGGAGGUUUAUCGAAUUUUGGGCGGAUGCCUCCAAA	< 1e-05
AUAAAGGCGCCAGAACUACAGAAAUGUAGUUGACGAGGAGGAGGUUUAUCGAAUUUUCGACGGAUGGCUCCAAA	< 1e-05
AUAAAGGCGCCAGAACUACAGAAAUGUAGUUGCCGAGGAGGAGGUGUAUCGAAUUUUCGGCGGAUGCCUCCAAA	< 1e-05

Variants of: B1
Assay: self-cleavage kobs at 10000 uM GlcN6P; higher = faster cleavage; RNA array
Settings: with glucosamine-6-phosphate
Procedure, shortened: as §1

Variant	self-cleavage kobs at 10000 uM GlcN6P [s⁻¹]
AUAAAUGCGCCAGGACUACAGAAAUGUAGUUGACGAGGAGGAGGUUUAUCGAAUUAUCGGCGGAUGCCUCCAAA	0.00142 ± 0.00018
AUAAAUCCGCCAGAUCUACAGAAAUGUACUUGACGAGAAGGAGAUUUAUCGAAUUUUCGGAGGAUGCCUCCAAA	< 1e-05
AUAAAGGCGCCAGAACUACAGAAAUGUAGUUGCCGAGGAGGAGGUGUAUCGAAUUUUCGGCGGAUGCCUCCAAA	< 1e-05
